Assay results from article PMC12594183 (2026).

T1: SIRT1 NTD(3HB)-CD (Homo sapiens, UniProt Q96EB6)
T1 chain: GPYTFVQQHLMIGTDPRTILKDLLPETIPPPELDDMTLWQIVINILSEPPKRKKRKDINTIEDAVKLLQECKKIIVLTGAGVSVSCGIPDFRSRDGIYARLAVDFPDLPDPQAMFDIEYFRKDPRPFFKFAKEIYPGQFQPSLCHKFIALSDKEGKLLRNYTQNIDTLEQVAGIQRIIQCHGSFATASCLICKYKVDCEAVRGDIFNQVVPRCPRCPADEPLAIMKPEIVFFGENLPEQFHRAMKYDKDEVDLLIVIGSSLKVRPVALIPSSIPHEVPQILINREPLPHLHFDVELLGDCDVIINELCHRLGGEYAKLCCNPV

T2: SIRT1 CD (Homo sapiens, UniProt Q96EB6)
T2 chain: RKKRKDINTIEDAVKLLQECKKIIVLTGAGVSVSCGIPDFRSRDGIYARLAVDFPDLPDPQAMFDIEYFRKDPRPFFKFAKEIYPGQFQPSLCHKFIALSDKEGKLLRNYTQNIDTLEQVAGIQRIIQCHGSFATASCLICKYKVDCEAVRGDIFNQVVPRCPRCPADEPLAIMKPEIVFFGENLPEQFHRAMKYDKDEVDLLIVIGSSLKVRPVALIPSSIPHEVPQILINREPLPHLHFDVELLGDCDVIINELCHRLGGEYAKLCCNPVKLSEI

T3: SIRT1 NTD(3HB) (Homo sapiens, UniProt Q96EB6)
T3 chain: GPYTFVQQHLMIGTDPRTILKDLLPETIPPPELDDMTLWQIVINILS


How the values were obtained:
Experiment in all cases: FP
[1] = molecular target: T1, SIRT1 NTD(3HB)-CD
[2] = molecular target: T2, SIRT1 CD
[3] = molecular target: T3, SIRT1 NTD(3HB)

Binder | Kd [1] [nM] | Kd [2] [nM] | Kd [3] [µM]
PPARγ LBD (protein) PESADLRALAKHLYDSYIKSFPLTKAKARAILTGKTTDKSPFVIYDMNSLMMGEDKIKFKHITPLQEQSKEVAIRIFQGCQFRSVEAVQEITEYAKSIPGFVNLDLNDQVTLLKYGVHEIIYTMLASLMNKDGVLISEGQGFMTREFLKSLRKPFGDFMEPKFEFAVKFNALELDDSDLAIFIAVIILSGDRPGLLNVKPIEDIQDNLLQALELQLKLNHPESSQLFAKLLQKMTDLRQIVTEHVQLLQVIKKTETDMSLHPLLQEIYKDLY | 240 | 1620 | 6.55
PPARγ DBD-LBD (protein, Rosiglitazone) AIECRVCGDKASGFHYGVHACEGCKGFFRRTIRLKLIYDRCDLNCRIHKKSRNKCQYCRFQKCLAVGMSHNAIRFGRMPQAEKEKLLAEISSDIDQLNPESADLRALAKHLYDSYIKSFPLTKAKARAILTGKTTDKSPFVIYDMNSLMMGEDKIKFKHITPLQEQSKEVAIRIFQGCQFRSVEAVQEITEYAKSIPGFVNLDLNDQVTLLKYGVHEIIYTMLASLMNKDGVLISEGQGFMTREFLKSLRKPFGDFMEPKFEFAVKFNALELDDSDLAIFIAVIILSGDRPGLLNVKPIEDIQDNLLQALELQLKLNHPESSQLFAKLLQKMTDLRQIVTEHVQLLQVIKKTETDMSLHPLLQEIYKDLY | 690 |  | 
PPARγ DBD-LBD (protein) AIECRVCGDKASGFHYGVHACEGCKGFFRRTIRLKLIYDRCDLNCRIHKKSRNKCQYCRFQKCLAVGMSHNAIRFGRMPQAEKEKLLAEISSDIDQLNPESADLRALAKHLYDSYIKSFPLTKAKARAILTGKTTDKSPFVIYDMNSLMMGEDKIKFKHITPLQEQSKEVAIRIFQGCQFRSVEAVQEITEYAKSIPGFVNLDLNDQVTLLKYGVHEIIYTMLASLMNKDGVLISEGQGFMTREFLKSLRKPFGDFMEPKFEFAVKFNALELDDSDLAIFIAVIILSGDRPGLLNVKPIEDIQDNLLQALELQLKLNHPESSQLFAKLLQKMTDLRQIVTEHVQLLQVIKKTETDMSLHPLLQEIYKDLY | 1900 |  | 
PPARγ DBD-LBD (protein, NAD+) AIECRVCGDKASGFHYGVHACEGCKGFFRRTIRLKLIYDRCDLNCRIHKKSRNKCQYCRFQKCLAVGMSHNAIRFGRMPQAEKEKLLAEISSDIDQLNPESADLRALAKHLYDSYIKSFPLTKAKARAILTGKTTDKSPFVIYDMNSLMMGEDKIKFKHITPLQEQSKEVAIRIFQGCQFRSVEAVQEITEYAKSIPGFVNLDLNDQVTLLKYGVHEIIYTMLASLMNKDGVLISEGQGFMTREFLKSLRKPFGDFMEPKFEFAVKFNALELDDSDLAIFIAVIILSGDRPGLLNVKPIEDIQDNLLQALELQLKLNHPESSQLFAKLLQKMTDLRQIVTEHVQLLQVIKKTETDMSLHPLLQEIYKDLY | 1670 |  | 

More lines, now with the values ahead:

Kd [1] [nM] | Kd [2] [nM] | Kd [3] [µM] | Binder
170 |  |  | PPARγ LBD (protein) PESADLRALAKHLYDSYIKSFPLTKAKARAIRTGKTTDKSPFVIYDMNSLMMGEDKIKFKHITPLQEQSKEVAIRIFQGCQFRSVEAVQEITEYAKSIPGFVNLDLNDQVTLLKYGVHEIIYTMLASLMNKDGVLISEGQGFMTREFLKSLRKPFGDFMEPKFEFAVKFNALELDDSDLAIFIAVIILSGDRPGLLNVKPIEDIQDNLLQALELQLKLNHPESSQLFAKLLQKMTDLRQIVTEHVQLLQVIKKTETDMSLHPLLQEIYKDLY
560 |  |  | PPARγ LBD (protein) PESADLRALAKHLYDSYIKSFPLTKAKARAILTGQTTDKSPFVIYDMNSLMMGEDKIKFKHITPLQEQSKEVAIRIFQGCQFRSVEAVQEITEYAKSIPGFVNLDLNDQVTLLKYGVHEIIYTMLASLMNKDGVLISEGQGFMTREFLKSLRKPFGDFMEPKFEFAVKFNALELDDSDLAIFIAVIILSGDRPGLLNVKPIEDIQDNLLQALELQLKLNHPESSQLFAKLLQKMTDLRQIVTEHVQLLQVIKKTETDMSLHPLLQEIYKDLY
810 |  |  | PPARγ LBD (protein) PESADLRALAKHLYDSYIKSFPLTKAKARAILTGKTTDKSPFRIYDMNSLMMGEDKIKFKHITPLQEQSKEVAIRIFQGCQFRSVEAVQEITEYAKSIPGFVNLDLNDQVTLLKYGVHEIIYTMLASLMNKDGVLISEGQGFMTREFLKSLRKPFGDFMEPKFEFAVKFNALELDDSDLAIFIAVIILSGDRPGLLNVKPIEDIQDNLLQALELQLKLNHPESSQLFAKLLQKMTDLRQIVTEHVQLLQVIKKTETDMSLHPLLQEIYKDLY
111000 |  |  | PPARγ LBD (protein) PESADLRALAKHLYDSYIKSFPLTKAKARAILTGKTTDKSPFVIYDMNSLMMGEDKIKFKHITPLDEQSKEVAIRIFQGCQFRSVEAVQEITEYAKSIPGFVNLDLNDQVTLLKYGVHEIIYTMLASLMNKDGVLISEGQGFMTREFLKSLRKPFGDFMEPKFEFAVKFNALELDDSDLAIFIAVIILSGDRPGLLNVKPIEDIQDNLLQALELQLKLNHPESSQLFAKLLQKMTDLRQIVTEHVQLLQVIKKTETDMSLHPLLQEIYKDLY
210 |  |  | PPARγ LBD (protein) PESADLRALAKHLYDSYIKSFPLTKAKARAILTGKTTDKSPFVIYDMNSLMMGEDKIKFQHITPLQEQSKEVAIRIFQGCQFRSVEAVQEITEYAKSIPGFVNLDLNDQVTLLKYGVHEIIYTMLASLMNKDGVLISEGQGFMTREFLKSLRKPFGDFMEPKFEFAVKFNALELDDSDLAIFIAVIILSGDRPGLLNVKPIEDIQDNLLQALELQLKLNHPESSQLFAKLLQKMTDLRQIVTEHVQLLQVIKKTETDMSLHPLLQEIYKDLY
